Experimental data from the supplement of paper PMC9112550, “Optimization of the antimicrobial peptide Bac7 by deep mutational scanning” (BMC Biology, 2022).

Test system: Escherichia coli TOP10
Assay: shrunken log2 fold change of peptide-encoding DNA abundance (4.5 h post-induction vs induction); higher = less antimicrobial activity (less host growth inhibition)
Details: time post-induction: 4.5 h; library: site-saturation at positions 5, 18, 19, 20
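Also: peptides expressed intracellularly from a pBAD plasmid library in pooled LB shake-flask culture, induced with 0.3% L-arabinose, DNA abundance read by NGS, three biological replicates, DESeq2 with apeglm shrinkage.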

Row | Sequence | shrunken log2 fold change
1 | RRIRMRPPRLPRPRPRPLIDPRP | 0.356
2 | RRIRMRPPRLPRPRPRPLITPRP | 0.0495
3 | RRIRMRPPRLPRPRPRPLKNPRP | -0.0484
4 | RRIRMRPPRLPRPRPRPLKVPRP | 0.153
5 | RRIRMRPPRLPRPRPRPLKWPRP | 0.196
6 | RRIRMRPPRLPRPRPRPLMIPRP | -0.159
7 | RRIRMRPPRLPRPRPRPLMVPRP | 0.396
8 | RRIRMRPPRLPRPRPRPLPCPRP | 0.372
9 | RRIRMRPPRLPRPRPRPLPEPRP | 1.24
10 | RRIRMRPPRLPRPRPRPLPHPRP | 0.407
11 | RRIRMRPPRLPRPRPRPLPRPRP | 2.48
12 | RRIRMRPPRLPRPRPRPLPSPRP | 0.942
13 | RRIRMRPPRLPRPRPRPLPVPRP | 0.872
14 | RRIRMRPPRLPRPRPRPLRSPRP | 2.47
15 | RRIRMRPPRLPRPRPRPLSHPRP | 0.177
16 | RRIRMRPPRLPRPRPRPLTAPRP | 1.15
17 | RRIRMRPPRLPRPRPRPLTIPRP | 0.19
18 | RRIRMRPPRLPRPRPRPLVEPRP | 2.17
19 | RRIRMRPPRLPRPRPRPLVVPRP | 0.0644
20 | RRIRMRPPRLPRPRPRPLWNPRP | -0.182
21 | RRIRMRPPRLPRPRPRPLWWPRP | 0.795
22 | RRIRMRPPRLPRPRPRPLYDPRP | -0.0878
23 | RRIRMRPPRLPRPRPRPLYQPRP | -0.38
24 | RRIRMRPPRLPRPRPRPMCMPRP | -0.179
25 | RRIRMRPPRLPRPRPRPMEIPRP | -0.129

Row | Sequence | shrunken log2 fold change
26 | RRIRMRPPRLPRPRPRPMFGPRP | 0.0113
27 | RRIRMRPPRLPRPRPRPMGEPRP | 0.792
28 | RRIRMRPPRLPRPRPRPMHDPRP | 0.192
29 | RRIRMRPPRLPRPRPRPMHSPRP | 0.126
30 | RRIRMRPPRLPRPRPRPMIDPRP | -0.0842
31 | RRIRMRPPRLPRPRPRPMILPRP | -0.0491
32 | RRIRMRPPRLPRPRPRPMISPRP | -0.0256
33 | RRIRMRPPRLPRPRPRPMKQPRP | 0.0424
34 | RRIRMRPPRLPRPRPRPMMVPRP | -0.00664
35 | RRIRMRPPRLPRPRPRPMMYPRP | -0.0758
36 | RRIRMRPPRLPRPRPRPMPEPRP | 0.627
37 | RRIRMRPPRLPRPRPRPMQHPRP | 0.579
38 | RRIRMRPPRLPRPRPRPMVWPRP | 1.09
39 | RRIRMRPPRLPRPRPRPMWIPRP | -0.217
40 | RRIRMRPPRLPRPRPRPMYMPRP | 0.0751
41 | RRIRMRPPRLPRPRPRPMYPPRP | -0.00194
42 | RRIRMRPPRLPRPRPRPMYTPRP | -0.71
43 | RRIRMRPPRLPRPRPRPNADPRP | 2.51
44 | RRIRMRPPRLPRPRPRPNAVPRP | 0.0414
45 | RRIRMRPPRLPRPRPRPNDFPRP | 0.0282
46 | RRIRMRPPRLPRPRPRPNERPRP | 0.69
47 | RRIRMRPPRLPRPRPRPNESPRP | 0.923
48 | RRIRMRPPRLPRPRPRPNFIPRP | -0.371
49 | RRIRMRPPRLPRPRPRPNFVPRP | 0.0215
50 | RRIRMRPPRLPRPRPRPNGEPRP | 0.278

Row | Sequence | shrunken log2 fold change
51 | RRIRMRPPRLPRPRPRPNGKPRP | 0.321
52 | RRIRMRPPRLPRPRPRPNGVPRP | 0.194
53 | RRIRMRPPRLPRPRPRPNICPRP | 0.021
54 | RRIRMRPPRLPRPRPRPNIKPRP | -0.266
55 | RRIRMRPPRLPRPRPRPNKDPRP | 0.0301
56 | RRIRMRPPRLPRPRPRPNKFPRP | 0.0721
57 | RRIRMRPPRLPRPRPRPNKKPRP | -0.0238
58 | RRIRMRPPRLPRPRPRPNLMPRP | -0.126
59 | RRIRMRPPRLPRPRPRPNMIPRP | -0.489
60 | RRIRMRPPRLPRPRPRPNMRPRP | 1.6
61 | RRIRMRPPRLPRPRPRPNMYPRP | 0.0412
62 | RRIRMRPPRLPRPRPRPNNDPRP | -0.0943
63 | RRIRMRPPRLPRPRPRPNPTPRP | 0.849
64 | RRIRMRPPRLPRPRPRPNQWPRP | 2.38
65 | RRIRMRPPRLPRPRPRPNRLPRP | 0.0386
66 | RRIRMRPPRLPRPRPRPNSCPRP | -0.0381
67 | RRIRMRPPRLPRPRPRPNSLPRP | -0.0986
68 | RRIRMRPPRLPRPRPRPNSTPRP | 0.0221
69 | RRIRMRPPRLPRPRPRPNTLPRP | -0.507
70 | RRIRMRPPRLPRPRPRPNTYPRP | -0.0596
71 | RRIRMRPPRLPRPRPRPNWMPRP | -0.0131
72 | RRIRMRPPRLPRPRPRPPCGPRP | 0.788
73 | RRIRMRPPRLPRPRPRPPDRPRP | 1.26
74 | RRIRMRPPRLPRPRPRPPDSPRP | 0.198
75 | RRIRMRPPRLPRPRPRPPELPRP | 0.372

Row | Sequence | shrunken log2 fold change
76 | RRIRMRPPRLPRPRPRPPFLPRP | 0.305
77 | RRIRMRPPRLPRPRPRPPHGPRP | 1.06
78 | RRIRMRPPRLPRPRPRPPIGPRP | 0.161
79 | RRIRMRPPRLPRPRPRPPLNPRP | 0.584
80 | RRIRMRPPRLPRPRPRPPLPPRP | 0.879
81 | RRIRMRPPRLPRPRPRPPNVPRP | 0.301
82 | RRIRMRPPRLPRPRPRPPPKPRP | 2.03
83 | RRIRMRPPRLPRPRPRPPPQPRP | 1.79
84 | RRIRMRPPRLPRPRPRPPRIPRP | 0.226
85 | RRIRMRPPRLPRPRPRPPSMPRP | 0.761
86 | RRIRMRPPRLPRPRPRPPWGPRP | 0.686
87 | RRIRMRPPRLPRPRPRPPWWPRP | 1.01
88 | RRIRMRPPRLPRPRPRPPYFPRP | 0.104
89 | RRIRMRPPRLPRPRPRPQAIPRP | -0.00149
90 | RRIRMRPPRLPRPRPRPQAKPRP | 0.0296
91 | RRIRMRPPRLPRPRPRPQARPRP | 0.575
92 | RRIRMRPPRLPRPRPRPQAVPRP | 0.442
93 | RRIRMRPPRLPRPRPRPQCCPRP | 0.00357
94 | RRIRMRPPRLPRPRPRPQCEPRP | -0.00192
95 | RRIRMRPPRLPRPRPRPQDPPRP | 0.786
96 | RRIRMRPPRLPRPRPRPQFPPRP | 0.16
97 | RRIRMRPPRLPRPRPRPQGPPRP | 0.246
98 | RRIRMRPPRLPRPRPRPQHLPRP | -0.344
99 | RRIRMRPPRLPRPRPRPQHMPRP | -0.355
100 | RRIRMRPPRLPRPRPRPQIKPRP | -0.0128

Row | Sequence | shrunken log2 fold change
101 | RRIRMRPPRLPRPRPRPQKLPRP | 0.0146
102 | RRIRMRPPRLPRPRPRPQMDPRP | 0.224
103 | RRIRMRPPRLPRPRPRPQMIPRP | -0.0999
104 | RRIRMRPPRLPRPRPRPQMKPRP | 0.518
105 | RRIRMRPPRLPRPRPRPQMVPRP | -0.243
106 | RRIRMRPPRLPRPRPRPQNDPRP | -0.179
107 | RRIRMRPPRLPRPRPRPQQIPRP | 0.0607
108 | RRIRMRPPRLPRPRPRPQTDPRP | 0.19
109 | RRIRMRPPRLPRPRPRPQTIPRP | 0.414
110 | RRIRMRPPRLPRPRPRPQVSPRP | 0.399
111 | RRIRMRPPRLPRPRPRPQWHPRP | 0.265
112 | RRIRMRPPRLPRPRPRPQYAPRP | 0.0122
113 | RRIRMRPPRLPRPRPRPQYYPRP | -0.805
114 | RRIRMRPPRLPRPRPRPRARPRP | 1.67
115 | RRIRMRPPRLPRPRPRPRCLPRP | -0.0778
116 | RRIRMRPPRLPRPRPRPRECPRP | 0.0611
117 | RRIRMRPPRLPRPRPRPRGPPRP | 0.684
118 | RRIRMRPPRLPRPRPRPRGRPRP | 1.2
119 | RRIRMRPPRLPRPRPRPRHLPRP | -0.0764
120 | RRIRMRPPRLPRPRPRPRHPPRP | 0.617
121 | RRIRMRPPRLPRPRPRPRHQPRP | 0.155
122 | RRIRMRPPRLPRPRPRPRKMPRP | 0.356
123 | RRIRMRPPRLPRPRPRPRMTPRP | 1.84
124 | RRIRMRPPRLPRPRPRPRNEPRP | 0.471
125 | RRIRMRPPRLPRPRPRPRPGPRP | 1.38

Row | Sequence | shrunken log2 fold change
126 | RRIRMRPPRLPRPRPRPRPHPRP | 1.05
127 | RRIRMRPPRLPRPRPRPRPLPRP | 1.17
128 | RRIRMRPPRLPRPRPRPRPTPRP | 1.27
129 | RRIRMRPPRLPRPRPRPRRTPRP | 1.76
130 | RRIRMRPPRLPRPRPRPRSKPRP | 0.907
131 | RRIRMRPPRLPRPRPRPRTFPRP | 0.541
132 | RRIRMRPPRLPRPRPRPRTLPRP | 0.28
133 | RRIRMRPPRLPRPRPRPRTSPRP | 0.623
134 | RRIRMRPPRLPRPRPRPRTVPRP | 0.472
135 | RRIRMRPPRLPRPRPRPRVKPRP | 0.494
136 | RRIRMRPPRLPRPRPRPRVPPRP | 0.83
137 | RRIRMRPPRLPRPRPRPRVYPRP | 0.0557
138 | RRIRMRPPRLPRPRPRPRWVPRP | 0.4
139 | RRIRMRPPRLPRPRPRPRWWPRP | 1.11
140 | RRIRMRPPRLPRPRPRPRYYPRP | -0.261
141 | RRIRMRPPRLPRPRPRPSANPRP | 2.44
142 | RRIRMRPPRLPRPRPRPSCTPRP | -0.0592
143 | RRIRMRPPRLPRPRPRPSDIPRP | -0.192
144 | RRIRMRPPRLPRPRPRPSDYPRP | 0.0806
145 | RRIRMRPPRLPRPRPRPSFTPRP | -0.0116
146 | RRIRMRPPRLPRPRPRPSHAPRP | 0.282
147 | RRIRMRPPRLPRPRPRPSHLPRP | -0.123
148 | RRIRMRPPRLPRPRPRPSIWPRP | -0.255
149 | RRIRMRPPRLPRPRPRPSKGPRP | -0.071
150 | RRIRMRPPRLPRPRPRPSMYPRP | 0.081
